Test results as given in patent US7176293B1, “Compositions and methods to enhance sensitivity of cancer cells to mitotic stress” (The Wistar Institute of Anatomy and Biology, priority 1999, dated 2007).

Columns and labels:
DLD1 cells [1] = experiment: Mitotic index of transiently-transfected DLD1 cells exposed to mitotic stress; assay type: cell-based, human; details: DLD1 cells co-transfected with wild-type Chfr
Description: (§1) Stable transfectants were prepared by transfecting DLD1 or U20S cells with 5 μg pSV2-HAchfr or pSV2-HAchfr-M580, or 5 μg pSV2 vector without insert and 1 μg pSV7neo plasmid [Wieczorek et al., supra] using Fugene-6 transfection reagent (Roche). Stably transfected cells were selected with G418. For transient expression, DLD1 or U20S cells were transfected with 5 μg pSV2-HAchfr or pSV2-HAchfrM580 or pSV2 plasmid without insert and 2 μg of a plasmid expressing green fluorescent protein using Fugene-6. SAOS2 cells were transfected as described above, except that the plasmids expressing Chfr were cotransfected with a plasmid expressing green fluorescent protein (GFP).
(§2) Cells were grown on 8-well culture slides coated with human fibronectin (Becton Dickinson) and were examined as either non-synchronized or synchronized cells. […] The slides were sealed with coverslips using Fluoromount-G (Upstate Biotechnology) and visualized with a fluorescence microscope (Leica). […]
About 50% of the cells expressed GFP, but the variable level of expression made it difficult to define a threshold above which a cell would be considered GFP-positive. Thus, to avoid any bias, the mitotic index was calculated for the entire cell population. […]

DLD1 and U20S cells = experiment: Mitotic index of stably transfected DLD1 and U20S cells in response to nocodazole; assay type: cell-based, human
Description: as §1, §2
To determine whether Chfr accounted for the different response, DLD1 and U20S cells were prepared to stably express HA-tagged wild-type Chfr or Chfr with the […] substitution (M580) or just the neo selectable marker. […] Furthermore, the different effects of wild-type Chfr and Chfr-M580 could not be attributed to differences in protein expression, as determined by immunoblotting. […]

DLD1 cells [2] = experiment: Mitotic index of unsynchronized DLD1 cells stably expressing Chfr or Chfr-A325, exposed to nocodazole; assay type: cell-based, human; details: stably transfected unsynchronized DLD1 cells
From the text: To determine whether ubiquitin-protein ligase activity is required for checkpoint function, the Chfr mutant that substitutes Cys325 of the ring finger with Ala was stably-expressed in DLD1 cells. These cells were then exposed to mitotic stress and examined for entry into metaphase. The mitotic index of unsynchronized DLD1 cells exposed to nocodazole is high, indicating the absence of a checkpoint that would delay entry into metaphase in response to mitotic stress.

Chfr = experiment: Ubiquitin-protein ligase assay in vitro; assay type: biochemical, human; details: crude bacterial lysates with E1, E2, ubiquitin and ATP; 20 minutes at 30° C.
Description: Recombinant E. coli bacterial cells that have been genetically engineered to express the E1 ubiquitin-activating enzyme and the E2 ubiquitin-conjugating enzyme (either UbchD2 or Ubch8) and a […] comprised of glutathione S-transferase fused to the N-terminus of Chfr were lysed. The lysates were incubated in the presence of ubiquitin and ATP and the reaction allowed to proceed for 20 minutes at 30° C. GST-Chfr was captured on glutathione beads, eluted with SDS sample buffer, and resolved by SDS-PAGE. The SDS gel was immunoblotted with antibodies that recognize ubiquitin. Reactions were performed with full-length Chfr fused to GST and reactions were performed with Chfr lacking amino acid residues 1–280 of SEQ ID NO: 2, which contain the FHA domain.

Molecule	dominant negative effect on wild-type Chfr (DLD1 cells [1])	mitotic index in response to nocodazole (DLD1 and U20S cells)	mitotic index after exposure to nocodazole (DLD1 cells [2])	ubiquitin-protein ligase activity (ubiquitination of GST-Chfr) (Chfr)
Chfr-M580: chfr protein bearing a substitution of Val580 with Met (protein, UniProt Q96EP1 1-664, looked up, variant V580M) E3 ubiquitin-protein ligase …: MERPEEGKQSPPPQPWGRLLRLGAEEGEPHVLLRKREWTIGRRRGCDLSFPSNKLVSGDHCRIVVDEKSGQVTLEDTSTSGTVINKLKVVKKQTCPLQTGDVIYLVYRKNEPEHNVAYLYESLSEKQGMTQESFEANKENVFHGTKDTSGAGAGRGADPRVPPSSPATQVCFEEPQPSTSTSDLFPTASASSTEPSPAGRERSSSCGSGGGGISPKGSGPSVASDEVSSFASALPDRKTASFSSLEPQDQEDLEPVKKKMRGDGDLDLNGQLLVAQPRRNAQTVHEDVRAAAGKPDKMEETLTCIICQDLLHDCVSLQPCMHTFCAACYSGWMERSSLCPTCRCPVERICKNHILNNLVEAYLIQHPDKSRSEEDVQSMDARNKITQDMLQPKVRRSFSDEEGSSEDLLELSDVDSESSDISQPYVVCRQCPEYRRQAAQPPHCPAPEGEPGAPQALGDAPSTSVSLTTAVQDYVCPLQGSHALCTCCFQPMPDRRAEREQDPRVAPQQCAVCLQPFCHLYWGCTRTGCYGCLAPFCELNLGDKCLDGVLNNNSYESDILKNYLATRGLTWKNMLTESLMALQRGVFLLSDYRVTGDTVLCYCCGLRSFRELTYQYRQNIPASELPVAVTSRPDCYWGRNCRTQVKAHHAMKFNHICEQTRFKN	aid not act as a dominant negative mutant	high mitotic index	–	–
Chfr-A325: Chfr mutant that substitutes Cys325 of the ring finger with Ala (protein, UniProt Q96EP1 1-664, looked up, variant C325A) E3 ubiquitin-protein ligase …: MERPEEGKQSPPPQPWGRLLRLGAEEGEPHVLLRKREWTIGRRRGCDLSFPSNKLVSGDHCRIVVDEKSGQVTLEDTSTSGTVINKLKVVKKQTCPLQTGDVIYLVYRKNEPEHNVAYLYESLSEKQGMTQESFEANKENVFHGTKDTSGAGAGRGADPRVPPSSPATQVCFEEPQPSTSTSDLFPTASASSTEPSPAGRERSSSCGSGGGGISPKGSGPSVASDEVSSFASALPDRKTASFSSLEPQDQEDLEPVKKKMRGDGDLDLNGQLLVAQPRRNAQTVHEDVRAAAGKPDKMEETLTCIICQDLLHDCVSLQPCMHTFAAACYSGWMERSSLCPTCRCPVERICKNHILNNLVEAYLIQHPDKSRSEEDVQSMDARNKITQDMLQPKVRRSFSDEEGSSEDLLELSDVDSESSDISQPYVVCRQCPEYRRQAAQPPHCPAPEGEPGAPQALGDAPSTSVSLTTAVQDYVCPLQGSHALCTCCFQPMPDRRAEREQDPRVAPQQCAVCLQPFCHLYWGCTRTGCYGCLAPFCELNLGDKCLDGVLNNNSYESDILKNYLATRGLTWKNMLTESLVALQRGVFLLSDYRVTGDTVLCYCCGLRSFRELTYQYRQNIPASELPVAVTSRPDCYWGRNCRTQVKAHHAMKFNHICEQTRFKN	–	–	did not lead to a low mitotic index	lacks ubiquitin-protein ligase activity
GST-Chfr: glutathione S-transferase fused to the N-terminus of full-length Chfr (protein, left off: a dimerising Fc or GST) MERPEEGKQSPPPQPWGRLLRLGAEEGEPHVLLRKREWTIGRRRGCDLSFPSNKLVSGDHCRIVVDEKSGQVTLEDTSTSGTVINKLKVVKKQTCPLQTGDVIYLVYRKNEPEHNVAYLYESLSEKQGMTQESFEANKENVFHGTKDTSGAGAGRGADPRVPPSSPATQVCFEEPQPSTSTSDLFPTASASSTEPSPAGRERSSSCGSGGGGISPKGSGPSVASDEVSSFASALPDRKTASFSSLEPQDQEDLEPVKKKMRGDGDLDLNGQLLVAQPRRNAQTVHEDVRAAAGKPDKMEETLTCIICQDLLHDCVSLQPCMHTFCAACYSGWMERSSLCPTCRCPVERICKNHILNNLVEAYLIQHPDKSRSEEDVQSMDARNKITQDMLQPKVRRSFSDEEGSSEDLLELSDVDSESSDISQPYVVCRQCPEYRRQAAQPPHCPAPEGEPGAPQALGDAPSTSVSLTTAVQDYVCPLQGSHALCTCCFQPMPDRRAEREQDPRVAPQQCAVCLQPFCHLYWGCTRTGCYGCLAPFCELNLGDKCLDGVLNNNSYESDILKNYLATRGLTWKNMLTESLVALQRGVFLLSDYRVTGDTVLCYCCGLRSFRELTYQYRQNIPASELPVAVTSRPDCYWGRNCRTQVKAHHAMKFNHICEQTRFKN	–	–	–	efficient ubiquitination
